What was measured:
Assay in all cases: single-molecule fluorescence
[1] = target: T1, pMcsB (Geobacillus stearothermophilus (printed …, UniProt P0DMM5))
T1 sequence: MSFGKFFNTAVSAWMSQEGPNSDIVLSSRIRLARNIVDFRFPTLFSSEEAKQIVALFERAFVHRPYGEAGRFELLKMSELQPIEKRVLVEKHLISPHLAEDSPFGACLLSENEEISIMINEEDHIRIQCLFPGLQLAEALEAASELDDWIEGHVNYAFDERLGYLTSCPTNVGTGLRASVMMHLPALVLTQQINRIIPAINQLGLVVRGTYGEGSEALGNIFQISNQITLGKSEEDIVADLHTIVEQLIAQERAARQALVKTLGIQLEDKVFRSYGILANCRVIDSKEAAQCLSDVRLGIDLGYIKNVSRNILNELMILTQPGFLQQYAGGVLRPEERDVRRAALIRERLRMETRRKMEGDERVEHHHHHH

[2] = target: T2, pMcsB-HaloTag (Geobacillus stearothermophilus (printed …, UniProt P0DMM5 1-363))
T2 sequence: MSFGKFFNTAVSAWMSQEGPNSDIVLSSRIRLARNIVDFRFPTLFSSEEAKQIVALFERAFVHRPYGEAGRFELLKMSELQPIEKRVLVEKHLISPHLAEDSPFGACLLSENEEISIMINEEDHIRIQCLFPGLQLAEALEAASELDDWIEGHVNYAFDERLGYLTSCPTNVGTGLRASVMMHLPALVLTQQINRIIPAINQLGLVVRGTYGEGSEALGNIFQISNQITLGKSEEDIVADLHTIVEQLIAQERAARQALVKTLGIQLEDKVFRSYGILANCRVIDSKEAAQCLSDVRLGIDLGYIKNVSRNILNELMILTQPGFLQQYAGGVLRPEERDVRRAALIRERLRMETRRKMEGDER

[3] = target: T3, CtsR (Geobacillus stearothermophilus (printed …, UniProt C3W947))
T3 sequence: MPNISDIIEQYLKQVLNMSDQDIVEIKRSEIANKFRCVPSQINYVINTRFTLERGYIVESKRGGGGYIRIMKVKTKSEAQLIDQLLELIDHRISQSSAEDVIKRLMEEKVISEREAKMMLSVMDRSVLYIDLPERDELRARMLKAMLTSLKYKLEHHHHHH

B1: cognate Cy3 DNA probe (T7 label) (dsDNA)
DNA 1: CGATTACGGCAATTCAGGAATACCGCTAATG
DNA 2: GCTGATTAAGGTCAAATATAGTCAAAATAGAGTTCATTAGCGGTATTCCTGAATTGCCGTAATCG
DNA 3: CTCTATTTTGACTATATTTGACCTTAATCAGC
modifications: amino-C6-dT at T7 of strand 3 (S8 printed split around it)
binding result [1]: no binding
binding result [2]: no binding
Kd [3]: ~12 nM
